Laboratory results published in the supplement of paper PMC10567573.

B1: ETS1 (parent)
chain: YVRDRADLNKDKPVIPAAALAGYT
B2: TPRG1 (parent)
chain: ETIQGFWLLTKIDHWNNEKERILL

Variants of: B1
Experiment: protein stability index of a GFP-peptide fusion (GPS, HEK-293T) (PSI 1-6); higher = more stable
Conditions: c terminus: a fixed tail appended
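Also: lentivirally expressed fusions sorted by FACS into six bins by GFP to DsRed ratio, PSI derived from sequencing read proportions per bin multiplied by bin number.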

Protein stability index of substitutions, site by site:
D11: V 3.03, F 2.42, S 2.9, W 2.56, K 1.77, M 2.31, P 3.65, H 3.35, A 2.28, I 2.08, Q 2.78
G22: L 1.85, N 2.15, I 2.29, Y 1.69, F 2.21, D 2.53, V 2.74, E 1.77, T 2.05
L8: F 2.72, S 1.72, H 2.29, P 1.87, C 1.96, N 2.53, K 2.19, M 2.9
A21: T 2.52, P 1.65, I 2.42, V 2.38, Q 1.95, G 1.63, Y 2.74, F 3.51, R 2.07, M 1.45
N9: C 2.48, S 1.77, I 2.58, Q 1.66, W 3.77, V 2.57, F 2.21, D 1.59, P 2.29, E 1.98, G 2.29
A19: F 3.59, Y 2.13, M 1.63, Q 2.84, R 2.53, C 1.86, L 1.55
R3: H 1.77, S 2.12, V 1.55, Q 2.08, K 2.56, Y 2.54, F 2.33, C 1.75
V14: K 2.34, L 2.79, E 1.97, M 2.75
Y1: A 4.46, G 4.02, C 3.31, N 4.3, W 3.77
P13: A 1.53, D 1.63, S 1.62, Q 1.63, E 1.74, R 3.04, Y 2.59, V 2.77, G 2.23
K12: W 2.43, R 2.08, N 2.29, P 1.95, V 2.47, Q 2.48, T 2.02, I 2.19, H 2.29, E 1.79
R5: D 2.14, L 1.82, A 2.12, T 2.02, N 1.94, C 2.36, G 2.24
D7: F 2.17, E 2.37, N 2.98, L 2.51, C 2.17, A 2.05, Y 2.37, S 1.72, T 3.92, K 2.99, G 2.56
A18: K 2.63, V 1.09, G 2.35, R 1.93, N 2.22, D 2.21, W 2.53, Y 2.19, H 2.18, P 3.01
P16: N 2.33, I 2.23, Y 2.98, S 1.64, F 3.22
T24: C 2.47, F 1.84, Q 2.69, V 1.74, S 1.98
K10: Y 1.97, E 1.88, I 2.23, C 2.75, V 1.55, W 2.19
D4: P 2.24, E 1.79, F 2.32, Q 1.57, W 1.83, L 2.03, K 2.07, A 2.68, C 3.5
I15: H 2.29, N 3.26, C 2.84, G 2.09, V 1.56
L20: Y 3.18, F 2.8, I 2.04, R 2.35, C 2.48, V 2.02, E 1.81
A17: K 1.98, Y 2.86, N 1.64, S 2.25, D 1.41, L 2.04, I 2.52, F 1.76
Y23: W 2.5, L 2.58, V 2.13, P 1.47, T 2.26, A 2.15, M 1.89, N 2.34, C 2.51
A6: H 1.87, W 2.71, V 2.29, L 1.55, K 1.2, P 1.61, F 2.46, N 2.08
V2: E 4.25, W 3.19, L 3.69, I 2.17, H 2.46, A 4.01, N 3.77, D 4.34, T 3.5

Variants of: B2
Experiment: as above
Conditions: c terminus: a fixed tail appended

Protein stability index, by site and new letter:
R21: Q 3.52, G 2.98, H 2.66, E 3.83, I 2.51, C 3.09, D 1.3, K 1.66, T 2.79, L 2.75, P 2.58
L23: M 3.45, A 2.89, I 3.88, Y 4.45, K 1.23, S 3.2, V 3.52, P 1.95, E 2.38, W 3.52, R 1.77, T 2.42, Q 1.78
N16: M 1.63, F 2.65, K 4.29, I 3.07, E 1.92, Q 1.77, T 3.58, G 1.75, S 2.12, P 2.99, A 2.06
K19: T 1.78, I 2.47, V 1.62, Y 2.27, Q 1.52, R 4.12, L 2.92, W 2.92, P 2.82, A 2.21, G 1.76, C 2.12, N 4.67, E 1.69
I12: R 1.75, S 2.09, N 2.83, T 1.58
E18: C 2.45, N 2.14, W 2.03, L 3.57, S 3.54, I 1.56, M 2.79, V 3.83, K 1.71, A 2.8, H 2.3
I22: H 2.02, D 1.01, L 3.26, Y 1.63, A 2.62, Q 3.38, F 3.5, E 2.16, M 3.17, K 2.15, N 2.6, V 3.42, G 1.89, R 1.48, P 1.61
W15: Q 2.09, D 1.62, P 2.2, E 2.05, C 1.56, K 2.04, N 1.57, V 2.49, H 2.16, I 1.74, R 3.5, G 4.15
D13: V 2.29, Q 3.45, M 1.04, K 3.06, I 3.03, N 3.41, W 2.98, T 1.69, A 3.1, F 2.23, P 2.19
E20: Q 2.27, K 2.67, D 3.18, N 2.53, L 3.61, M 3.33, A 3.4, P 2.37
H14: M 2.37, S 2.41, F 2.41, G 1.34, I 2.49, W 2.98, R 4.13, E 2.51, L 2.25, C 1.39, V 3.16, D 2.88
N17: Y 3.59, F 2.36, T 2.14, Q 4.24, S 2.2, A 2.33, V 3.23, K 3.22, M 3.42, C 2.54, I 2.46
L24: N 3.07, Q 3.61, H 4.13, C 2.36, G 4.41, M 2.21, W 2.52, P 2.8, V 2.5, K 2.24
